Experimental findings from patent publication US20200199241A1 (Chugai, published 2020) are described below.

What all share (experiment): SPR (Biacore), bound amount, IL6R-BF648/IL6R-L = 100
One assay addresses T1, FcγRIIa type H (human, UniProt P12318 36-217).
T1 construct: also called FcγRIIaH; FcγRIIH
T1 sequence: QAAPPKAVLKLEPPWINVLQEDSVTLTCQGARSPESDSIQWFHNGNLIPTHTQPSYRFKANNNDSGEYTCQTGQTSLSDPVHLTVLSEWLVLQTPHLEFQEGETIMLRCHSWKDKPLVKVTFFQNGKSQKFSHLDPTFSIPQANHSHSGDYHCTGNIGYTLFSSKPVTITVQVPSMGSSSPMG

The next assay deals with T2, FcγRIa (human, UniProt P12314 16-292, limits assumed).
T2 construct: also called FcgRIa; CD64

For the next assay, the target named is T3, FcγRIIb (human, UniProt P31994 43-217, limits assumed).
T3 construct: also called FcgRIIb; FcγIIB
T3 sequence: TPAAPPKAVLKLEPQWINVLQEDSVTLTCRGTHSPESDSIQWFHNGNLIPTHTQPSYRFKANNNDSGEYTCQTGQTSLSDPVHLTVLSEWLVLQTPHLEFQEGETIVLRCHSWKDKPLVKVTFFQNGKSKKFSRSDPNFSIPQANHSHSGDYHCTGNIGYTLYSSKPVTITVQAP

The next assay deals with T4, FcγRIIIa type V (human, UniProt P08637 17-208, limits assumed).
T4 construct: also called FcγRIIIaV; FcgRIIIaV

Positions count from the first letter of the chain named.

T4 sequence (P08637 other isoform, or with tags, fused parts or gaps limits assumed): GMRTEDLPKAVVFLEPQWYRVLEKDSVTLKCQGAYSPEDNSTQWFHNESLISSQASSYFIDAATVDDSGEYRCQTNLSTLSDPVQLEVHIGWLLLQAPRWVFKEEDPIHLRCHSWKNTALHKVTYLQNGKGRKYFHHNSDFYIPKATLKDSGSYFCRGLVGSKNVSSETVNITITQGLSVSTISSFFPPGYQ
T2 sequence (P12314 16-292 limits assumed): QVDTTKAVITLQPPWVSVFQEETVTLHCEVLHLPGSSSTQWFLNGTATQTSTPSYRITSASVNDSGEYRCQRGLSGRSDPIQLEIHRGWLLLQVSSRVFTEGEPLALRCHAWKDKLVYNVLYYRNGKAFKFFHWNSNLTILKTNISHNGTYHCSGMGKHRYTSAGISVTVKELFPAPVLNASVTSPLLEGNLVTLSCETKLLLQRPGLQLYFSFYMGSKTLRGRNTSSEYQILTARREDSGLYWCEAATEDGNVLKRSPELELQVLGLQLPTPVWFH

B1: IL6R-BP085/IL6R-L (antibody, human IgG1)
heavy: QVQLQESGPGLVKPSETLSLTCAVSGHSISHDHAWSWVRQPPGEGLEWIGFISYSGITNYNPSLQGRVTISRDNSKNTLYLQMNSLRAEDTAVYYCARSLARTTAMDYWGEGTLVTVSSASTKGPSVFPLAPSSKSTSGGTAALGCLVKDYFPEPVTVSWNSGALTSGVHTFPAVLQSSGLYSLSSVVTVPSSSLGTQTYICNVNHKPSNTKVDKKVEPKSCDKTHTCPPCPAPELLGDDSVFLFPPKPKDTLMISRTPEVTCVVVDVSHEDPEVKFNWYVDGVEVHNAKTKPREEQYNSTYRVVSVLTVLHQDWLNGKEYKCKVSNKALPKPIEKTISKAKGQPREPQVYTLPPSRDELTKNQVSLTCLVKGFYPSDIAVEWESNGQPENNYKTTPPVLDSDGSFFLYSKLTVDKSRWQQGNVFSCSVMHEALHNHYTQESLSLSP
light: DIQMTQSPSSLSASVGDRVTITCRASQDISSYLNWYQQKPGKAPKLLIYYTSRLHSGVPSRFSGSGSGTDFTFTISSLQPEDIATYYCQQGNTLPYTFGQGTKVEIK
notes: IgG1; Fc variant of IL6R-B3; copies: 2 + 2
As for B1, the relative binding activity with FcγRIIa type H is 158 % of control; with FcγRIa, 19 % of control; in the assay with FcγRIIb, 152 % of control; with FcγRIIIa type V, 104 % of control.

B2: IL6R-BP144/IL6R-L (antibody, human IgG1)
heavy: B1 heavy with K328A, K332A
light: B1 light
notes: as for B1
On to B2, for which the relative binding activity was 108 % of control with FcγRIIa type H, 64 % of control with FcγRIa, 121 % of control in the assay with FcγRIIb and 128 % of control with FcγRIIIa type V.

B3: IL6R-BP133/IL6R-L (antibody, human IgG1)
heavy: B1 heavy with E235D, L236Y, D239G
light: B1 light
notes: as for B1
On to B3, for which the relative binding activity with FcγRIIa type H was 151 % of control; with FcγRIa, 41 % of control; with FcγRIIb it was 137 % of control; in the assay with FcγRIIIa type V it was 114 % of control.

B4: IL6R-BP179/IL6R-L (antibody, human IgG1)
heavy: B1 heavy with P273G, K328A
light: B1 light
notes: as for B1
Turning to B4, the relative binding activity is 226 % of control with FcγRIIa type H, 39 % of control in the assay with FcγRIa, 177 % of control in the assay with FcγRIIb and 125 % of control with FcγRIIIa type V.

B5: IL6R-BP143/IL6R-L (antibody, human IgG1)
heavy: B1 heavy with L236Y, D239G, K328A, K332A
light: B1 light
notes: as for B1
B5: the relative binding activity is 143 % of control with FcγRIIa type H, 86 % of control with FcγRIa, 133 % of control with FcγRIIb and 114 % of control with FcγRIIIa type V.

B6: IL6R-BP086/IL6R-L (antibody, human IgG1)
heavy: B1 heavy with D239G, K328A
light: B1 light
notes: as for B1
In the case of B6, the relative binding activity in the assay with FcγRIIa type H was 116 % of control; in the assay with FcγRIa it was 72 % of control; with FcγRIIb, 137 % of control; with FcγRIIIa type V, 123 % of control.

B7: IL6R-BP129/IL6R-L (antibody, human IgG1)
heavy: B1 heavy with E235D, D239G, Y298D
light: B1 light
notes: as for B1
In the case of B7, the relative binding activity with FcγRIIa type H was 98 % of control; with FcγRIa, 68 % of control; with FcγRIIb, 138 % of control; with FcγRIIIa type V, 95 % of control.

B8: IL6R-BP187/IL6R-L (antibody, human IgG1)
heavy: B1 heavy with L236Y, D239G, P273G, K328A
light: B1 light
notes: as for B1
As for B8, the relative binding activity is 205 % of control with FcγRIIa type H, 68 % of control with FcγRIa, 157 % of control with FcγRIIb and 124 % of control with FcγRIIIa type V.

B9: IL6R-BP132/IL6R-L (antibody, human IgG1)
heavy: B1 heavy with E235D, D239G, K328A
light: B1 light
notes: as for B1
Consider B9, for which the relative binding activity with FcγRIIa type H is 130 % of control; with FcγRIa it was 91 % of control; with FcγRIIb, 150 % of control; in the assay with FcγRIIIa type V, 120 % of control.

B10: IL6R-BP186/IL6R-L (antibody, human IgG1)
heavy: B1 heavy with E235D, L236Y, P273G, Y298D, K328A
light: B1 light
notes: as for B1
Consider B10, for which the relative binding activity with FcγRIIa type H was 368 % of control; with FcγRIa, 43 % of control; in the assay with FcγRIIb it was 175 % of control; with FcγRIIIa type V, 143 % of control.

B11: IL6R-BP089/IL6R-L (antibody, human IgG1)
heavy: B1 heavy with L236Y, D239G, K328A
light: B1 light
notes: as for B1
On to B11, for which the relative binding activity was 186 % of control with FcγRIIa type H, 43 % of control with FcγRIa, 147 % of control with FcγRIIb and 136 % of control in the assay with FcγRIIIa type V.

B12: IL6R-BP184/IL6R-L (antibody, human IgG1)
heavy: B1 heavy with E235D, D239G, P273G
light: B1 light
notes: as for B1
For B12, the relative binding activity was 131 % of control with FcγRIIa type H, 96 % of control in the assay with FcγRIa, 171 % of control with FcγRIIb and 106 % of control with FcγRIIIa type V.

B13: IL6R-BP088/IL6R-L (antibody, human IgG1)
heavy: B1 heavy with K328A
light: B1 light
notes: as for B1
For the molecule B13, the relative binding activity in the assay with FcγRIIa type H was 166 % of control; in the assay with FcγRIa it was 25 % of control; with FcγRIIb it was 161 % of control; with FcγRIIIa type V it was 122 % of control.

B14: IL6R-BP149/IL6R-L (antibody, human IgG1)
heavy: B1 heavy with E235D, L236Y, Y298D, K328A
light: B1 light
notes: as for B1
As to B14, the relative binding activity with FcγRIIa type H was 401 % of control; with FcγRIa, 29 % of control; in the assay with FcγRIIb, 173 % of control; in the assay with FcγRIIIa type V, 186 % of control.

B15: IL6R-BP177/IL6R-L (antibody, human IgG1)
heavy: B1 heavy with E235D, L236Y, P273G, K328D
light: B1 light
notes: as for B1
As for B15, the relative binding activity was 409 % of control with FcγRIIa type H, 57 % of control with FcγRIa, 177 % of control with FcγRIIb and 186 % of control in the assay with FcγRIIIa type V.

B16: IL6R-BP183/IL6R-L (antibody, human IgG1)
heavy: B1 heavy with E235D, L236Y, D239G, P273G, K328A
light: B1 light
notes: as for B1
With B16, the relative binding activity in the assay with FcγRIIa type H is 191 % of control; in the assay with FcγRIa, 83 % of control; in the assay with FcγRIIb, 164 % of control; in the assay with FcγRIIIa type V, 113 % of control.

B17: IL6R-BP087/IL6R-L (antibody, human IgG1)
heavy: B1 heavy with L236Y, D239G
light: B1 light
notes: as for B1
For B17, the relative binding activity with FcγRIIa type H is 179 % of control; in the assay with FcγRIa, 33 % of control; with FcγRIIb, 137 % of control; with FcγRIIIa type V it was 158 % of control.

B18: IL6R-BP145/IL6R-L (antibody, human IgG1)
heavy: B1 heavy with L236Y, K332A
light: B1 light
notes: as for B1
As for B18, the relative binding activity is 224 % of control with FcγRIIa type H, 41 % of control with FcγRIa, 152 % of control in the assay with FcγRIIb and 153 % of control with FcγRIIIa type V.

B19: IL6R-BP180/IL6R-L (antibody, human IgG1)
heavy: B1 heavy with P273G
light: B1 light
notes: as for B1
For B19, the relative binding activity is 203 % of control with FcγRIIa type H, 29 % of control with FcγRIa, 179 % of control with FcγRIIb and 100 % of control with FcγRIIIa type V.

B20: IL6R-BP148/IL6R-L (antibody, human IgG1)
heavy: B1 heavy with E235D, L236Y, K328A
light: B1 light
notes: as for B1
On to B20, for which the relative binding activity with FcγRIIa type H was 462 % of control; in the assay with FcγRIa, 33 % of control; in the assay with FcγRIIb, 176 % of control; with FcγRIIIa type V, 227 % of control.

B21: IL6R-BP150/IL6R-L (antibody, human IgG1)
heavy: B1 heavy with L236Y, K328A, K332R
light: B1 light
notes: as for B1
For the molecule B21, the relative binding activity is 770 % of control in the assay with FcγRIIa type H, 30 % of control with FcγRIa, 183 % of control in the assay with FcγRIIb and 204 % of control in the assay with FcγRIIIa type V.

B22: IL6R-BP185/IL6R-L (antibody, human IgG1)
heavy: B1 heavy with E235D, L236Y, P273G, K328A
light: B1 light
notes: as for B1
Turning to B22, the relative binding activity was 446 % of control in the assay with FcγRIIa type H, 47 % of control in the assay with FcγRIa, 179 % of control in the assay with FcγRIIb and 191 % of control with FcγRIIIa type V.
